From the RNAGym collection of RNA variant scans (doi:10.7554/elife.80360)

B1: CPEB3 Ribozyme (parent)
chain: GGGGGCCACAGCAGAAGCGUUCACGUCGCGGCCCCUGUCAGAUUCUGGUGAAUCUGCGAAUUCUGCUGU

Variants of: B1
Test: self-cleavage, relative activity (ratio to wild type); higher = more cleavage; co-transcriptional

Row | Variant | self-cleavage
1 | C22A A52U | 0.118
2 | C22A A52G | 0.214
3 | U21G C22G | 0.227
4 | U21G C22A | 0.2
5 | U21G C22U | 0.181
6 | U21G G25U | 0.187
7 | U21G G25C | 0.185
8 | U21G C63A | 0.245
9 | U21G U43C | 0.428
10 | U21G U43A | 0.235
11 | U21G U43G | 0.324
12 | C22A G56A | 0.134
13 | C22A G56C | 0.173
14 | U21G G56U | 0.611
15 | C22A A40C | 0.222
16 | C22A A40U | 0.235
17 | C22A A40G | 0.246
18 | C22A G58A | 0.179
19 | C22A G58U | 0.119
20 | C22A G31U | 0.194
21 | C22A G31A | 0.174
22 | C22A G31C | 0.137
23 | U21G U55G | 0.346
24 | U21G U55A | 0.592

Row | Variant | self-cleavage
25 | U21G U55C | 0.358
26 | C22A C54U | 0.139
27 | C22A C54G | 0.2
28 | C22A U36A | 0.137
29 | C22A U36G | 0.161
30 | U21G C29U | 0.166
31 | U21G C29G | 0.158
32 | U21G G65C | 0.306
33 | U21G G65U | 0.243
34 | C22A G41C | 0.138
35 | C22A G41A | 0.12
36 | C22A G41U | 0.154
37 | C22A U38G | 0.131
38 | C22A U38A | 0.225
39 | C22A A42C | 0.251
40 | C22A A42G | 0.207
41 | U21G U26A | 0.3
42 | U21G U26G | 0.221
43 | U21G | 0.644
44 | U21G C57A | 0.22
45 | U21G C57U | 0.253
46 | C22A A51G | 0.169
47 | C22A A51U | 0.242
48 | U21C U67C | 0.898

Row | Variant | self-cleavage
49 | U21C U67A | 0.921
50 | U21G U46G | 0.503
51 | U21G U46A | 0.537
52 | C22A C29U | 0.158
53 | C22A C29G | 0.162
54 | C22A C29A | 0.169
55 | U21G U53C | 0.354
56 | U21G U53G | 0.376
57 | C22A | 0.201
58 | C22A U43A | 0.143
59 | C22A U43G | 0.181
60 | U21G A23U | 0.483
61 | U21G A23C | 0.379
62 | U21G C24U | 0.103
63 | U21G C24A | 0.106
64 | C22A C24U | 0.128
65 | C22A C24G | 0.249
66 | C22A G25A | 0.162
67 | C22A G25U | 0.115
68 | U21G U61C | 0.214
69 | U21G U61G | 0.24
70 | C22A C66G | 0.138
71 | C22A C66U | 0.177
72 | U21G C32A | 0.246

Row | Variant | self-cleavage
73 | U21G C32U | 0.609
74 | U21G C32G | 0.189
75 | U21C U64G | 0.75
76 | C22A G50C | 0.234
77 | C22A G50U | 0.253
78 | C22A A60C | 0.129
79 | U21C U69C | 1.05
80 | U21G A59C | 0.223
81 | U21G A52U | 0.608
82 | U21G A52G | 0.615
83 | U21G U67G | 0.579
84 | C22A C34A | 0.206
85 | U21G U44C | 0.444
86 | U21G U44G | 0.386
87 | U21G U44A | 0.498
88 | C22A U26C | 0.242
89 | C22A U26G | 0.305
90 | U21G A40U | 0.317
91 | U21G A40G | 0.463
92 | C22A G30C | 0.168
93 | C22A G30U | 0.181
94 | C22A A23C | 0.202
95 | C22A U46A | 0.181
96 | U21G G68A | 0.794

Row | Variant | self-cleavage
97 | C22A C33U | 0.218
98 | C22A C33A | 0.2
99 | C22A G28A | 0.158
100 | C22A G28U | 0.159
101 | C22A G28C | 0.124
102 | U21G G58U | 0.657
103 | U21G G58C | 0.519
104 | U21G C34A | 0.218
105 | C22A G48C | 0.162
106 | C22A G48U | 0.162
107 | C22A G48A | 0.223
108 | C22A C57U | 0.137
109 | C22A C57G | 0.187
110 | C22A C63A | 0.13
111 | C22A C63G | 0.114
112 | C22A U44G | 0.237
113 | U21G C54G | 0.423
114 | U21G C54U | 0.591
115 | U21G G41C | 0.276
116 | U21G G41U | 0.373
117 | U21G G41A | 0.388
118 | U21G C66G | 0.219
119 | U21G C66A | 0.263
120 | U21G C66U | 0.529

Row | Variant | self-cleavage
121 | U21G C27G | 0.227
122 | U21G G50U | 0.588
123 | U21G U62A | 0.316
124 | U21G U62C | 0.305
125 | U21G U62G | 0.273
126 | C22A C32U | 0.201
127 | C22A C32A | 0.224
128 | C22A C32G | 0.182
129 | C22A C39U | 0.206
130 | U21G U69A | 0.667
131 | U21G U69C | 0.863
132 | U21G U69G | 0.823
133 | U21G C39G | 0.865
134 | C22A C35A | 0.252
135 | C22A C35U | 0.138
136 | C22A C35G | 0.153
137 | U21G G37A | 0.193
138 | U21G G37U | 0.196
139 | U21G G37C | 0.18
140 | C22A C45G | 0.194
141 | U21G G48U | 0.594
142 | U21G G48A | 0.674
143 | U21G G48C | 0.648
144 | C22A G65A | 0.152

Row | Variant | self-cleavage
145 | C22A G65U | 0.209
146 | U21G C33U | 0.575
147 | U21G C33G | 0.215
148 | U21G C33A | 0.163
149 | U21G U49C | 0.738
150 | C22A G47U | 0.18
151 | C22A G47A | 0.217
152 | U21G U38A | 0.157
153 | U21G U38G | 0.274
154 | U21G A51U | 0.497
155 | U21G A51G | 0.54
156 | U21G A51C | 0.509
157 | U21G A60G | 0.251
158 | U21G A60U | 0.295
159 | U21G C35A | 0.13
160 | U21G U36A | 0.17
161 | C22A G37U | 0.937
162 | C22A G37C | 0.265
163 | U21G G28U | 0.0808
164 | U21G A42U | 0.503
165 | U21G A42C | 0.303
166 | U21G G31A | 0.175
167 | U21G G31U | 0.24
